# How the values were obtained:
# human IGF-II (Peprotech) = target: T1, human IGF-II (Peprotech) (human, UniProt P01344 25-91); test: far-Western: COS-1 cell lysate on PVDF membrane, probed with 2 µg/ml human IGF-II, detected with anti-human IGF-II monoclonal antibody
# T1 construct: Bought reagent; also called IGF-2
# Description: (§1) To investigate the binding affinity of the proteins encoded by C-hsi13412 and C-kaia397 to IGF, analysis by far-Western (Molecular Cloning—A Laboratory Manual, Third Edition, Cold Spring Harbor Laboratory; Protein Experiment Protocol 1, Shujunsha) was carried out using the cell lysates of COS-1/C-hsi13412 cell line, COS-1/C-kaia397, and, as a control, COS-1/mock cell line obtained in Example 8.
# (§2) A 5 μl aliquot of the cell lysates of COS-1/mock cell line, COS-1/C-hsi13412 cell line, and COS-1/C-kaia397 cell line was placed into each lane, and according to Example 14, SDS-PAGE was carried out, transferred to a PVDF membrane, and then blocked. Subsequently, 2 μg/ml human IGF-I (Peprotech), 2 μg/ml human IGF-II (Peprotech), or 2 μg/ml of human insulin (Sigma) diluted with the blocking solution was enclosed with the membrane, and was allowed to react at room temperature overnight. Next, anti-human IGF-I monoclonal antibody (Upstate Biotechnology), anti-human IGF-II monoclonal antibody (Upstate Biotechnology), or anti-human insulin polyclonal antibody (Santa Cruz) were added to each of the membranes to a concentration of 2 μg/ml, and was left standing at room temperature for 1 hour. After the membrane was washed well with Tween-TBS, detection was carried out using peroxiase-labeled rabbit anti-mouse immunoglobulin (DAKO) diluted 2,000 times as the secondary antibody.
# human IGF-I (Peprotech) = target: T2, human IGF-I (Peprotech) (human, UniProt P05019 49-118); test: far-Western: COS-1 cell lysate on PVDF membrane, probed with 2 µg/ml human IGF-I, detected with anti-human IGF-I monoclonal antibody
# T2 construct: Bought reagent; also called IGF-1
# Description: as §1, §2
# human insulin (Sigma) = target: T3, human insulin (Sigma) (human, UniProt P01308 25-54; P01308 90-110); test: far-Western: COS-1 cell lysate on PVDF membrane, probed with human insulin, detected with anti-human insulin polyclonal antibody
# T3 construct: Bought reagent
# Description: as §1, §2
# T3 sequence (P01308 25-54 limits assumed, chain 1 of 2): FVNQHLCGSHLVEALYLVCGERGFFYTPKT
# T3 sequence (P01308 90-110 limits assumed, chain 2 of 2): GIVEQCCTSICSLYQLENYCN
# T1 sequence (P01344 25-91 limits assumed): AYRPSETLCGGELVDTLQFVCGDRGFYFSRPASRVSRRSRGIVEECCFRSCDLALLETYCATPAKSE
# T2 sequence (P05019 49-118 limits assumed): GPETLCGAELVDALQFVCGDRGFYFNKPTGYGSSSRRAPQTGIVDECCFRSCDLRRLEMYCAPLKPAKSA
binder,measurement,setting,value
"protein encoded by C-kaia397 with FLAG marker peptide at the C-terminus, expressed in COS-1 cells (COS-1/C-kaia397 cell line) (other, not shown: small tags and cut ends, Tested as COS-1 cell lysate or culture supernatant, not purified) RPSPGPDYLRRGWMRLLAEGEGCAPCRPEECAAPRGCLAGRVRDAGGCCWECANLEGQLCDLDPSAHFYGHCGEQLECRLDTGGDLSRGEVPEPLCACRSQSPLCGSDGHTYSQICRLQEAARARPDANLTVAHPGPCESDWMPLLGHAILRPPAFTPRAPDRVTSI",binding result,human IGF-II (Peprotech),binds
same,binding result,human IGF-I (Peprotech),binds
same,binding result,human insulin (Sigma),no binding (tested: 2 µg/ml)

# From patent US20040072238A1 (Kyowa Kirin, published 2004)
